Consider 19 sequences from the DeepSol protein solubility set.

This data set is described as follows: soluble on expression in E. coli; label from the status in PepcDB or PDB records.
In the case of “MNQTLLSSFGTPFERVENALAALREGRGVMVLDDEDRENEGDMIFPAETMTVEQMALTIRHGSGIVCLCITEDRRKQLDLPMMVENNTSAYGTGFTVTIEAAEGVTTGVSAADRITTVRAAIADGAKPSDLNRPGHVFPLRAQAGGVLTRGGHTEATIDLMTLAGFKPAGVLCELTNDDGTMARAPECIEFANKHNMALVTIEDLVAYRQAHERKAS”, the “soluble on expression in E. coli” value was “soluble”.

Take “MNRIKVAILFGGCSEEHDVSVKSAIEIAANINKEKYEPLYIGITKSGVWKMCEKPCAEWENENCYSAVLSPDKKMHGLLVKKNHEYEINHVDVAFSALHGKSGEDGSIQGLFELSGIPFVGCDIQSSAICMDKSLTYIVAKNAGIATPAFWVINKDDRPVAATFTYPVFVKPARSGSSFGVKKVNSADELDYAIESARQYDSKILIEQAVSGCEVGCAVLGNSAALVVGEVDQIRLQYGIFRIHQEVEPEKGSENAVITVPADLSAEERGRIQETVKKIYKTLGCRGLARVDMFLQDNGRIVLNEVNTLPGFTSYSRYPRMMAAAGISLPELIDRLIVLALKG”: the “soluble on expression in E. coli” value was “soluble”.

As to “MNRLLQQSVSRGPLAVRASSTITTKPPTPNQITKNNAQFDKVTHTGQAWDQSDYRLQRFDISKKSVNPNVAMHLIDQRPPEDCGDKRVVFCDGGHPALGHPKVYINLDKPGVHACGYCGNRFYNSHATKAEDMKIQHLNC”, the “soluble on expression in E. coli” value is “not soluble”.

For the sequence “MNRMDNDLLAIQEARILIENAREAQKALATFSQEKLDRIVERMAGEVVKYARELAMMSHEETGFGKWQDKYIKNIFASDFLCKKIRKMKVVGIIAEDKENQTLDVGVPVGVIVALLPSTNPVSTAIYKTLIAIKSGNAIVFSPHPKAKKTTRRVLEILVRTAEASGLPCGAIGYQRTQALEGTLGLMNHKDTALIIVTGVPKLVKAAYAAGKPTIYGGPGNGPAFIERSADIKQAVADIITSRTFDHGIVSASEQSVVAEECIADEVRQELRGNGGYFLSEEEAEQLGKLFLRPDGSVNPDIVGKSAVELARKIGITVSENTKVLISEQKFVSPTNPYAKEKLCPVLAFYVEKDWFNACEKCIELLLNDGRGHTLVIHSRNEQVIREFALKKPVSRVLVNTPATLGGIGGTTNLFPALTLGCGAVGGGFTSDNVSPLNLINIRKVGYGVRKLEDITCGVQAESVGSSESAGLTRLTGLNGSLCPGPGYPKERTQDLNELLETLLEQLLPYRNA”, the “soluble on expression in E. coli” value is listed as “not soluble”.

As to “MNRMKTKQIDRHLAKFAYSEEFVGDTKRSTAAYTSVREDASIGSTHKLPLEVEEFGKMSNTVILGCGLSGMLTALSFAQKGIKTTIFESKSVKSPEFFKDIRTTALTPHSKNFLFSIDIWEELEKFVAEMQDIYVVDNQASEILDLRNDADAVLGYVVKNSDFKKMLLSKITNNPLITLIDNNQYQEVISHNDYSIIKFDDNQIKCNLLIICDGANSKVRSHYFANEIEKPYQTALTFNIKHEKPHENCAMEHFLPFGPFALLPLKDQYASSVIWSTSSDQAALIVNLPVEEVRFLTQRNAGNSLGKITIDSEISSFPLKARIANRYFHNRIVLIADTAHTVHPLAGQGLNQGIKDIEILSMIVSNNGPLQEYQKLRQEDNFIMYKLTDELNNIFSNHSKNLRCLRQIGFKVINNFKPVKNLITSYAMGKR”, the “soluble on expression in E. coli” value is “not soluble”.

As for “MNRSGQRLIVSAPRQIAFSTAVRQLSATPIQCQNESENSEPQKQGWISRLLKGQSMDPSSWQKQSHSSLLSNSELMYEFMTHNYRPGEQDAYLDAFGKYKNEMNQKNPSIELVGSWTCAYGRTRDQAIHLWRHNKGYEDVDSSISLHGKDSGIRAADNDVAKLCGRRKNLIVKSFSYWREPEQRPPNHVYDLRSYVLQPGTMIDWASAWAKGIQYRREANQDVGGFFAQVGQLYVVYHIWAYPSMSGRNDTRHATWAKPGWDATVANTVPLIKKMQSKILTPTKYSQLE”, the “soluble on expression in E. coli” value is reported as “not soluble”.

“MNRYITRGIDNNLPIILQQQLWKLVAQRENEQSKELEAIDYFHIFQFNMHNDQLCIKHKQERPEYIKTHKANYSKAINIKKVYIIREDDVDLSYYVMLLPEEYAAALEHHHHHH”: the “soluble on expression in E. coli” value was “soluble”.

Take “MNSDEVQLIKKTWEIPVATPTDSGAAILTQFFNRFPSNLEKFPFRDVPLEELSGNARFRAHAGRIIRVFDESIQVLGQDGDLEKLDEIWTKIAVSHIPRTVSKESYNQLKGVILDVLTAASSLDESQAATWAKLVDHVYGIIFKAIDDDGNAK”: the “soluble on expression in E. coli” value is reported as “soluble”.

For the sequence “MNSIKNVPARVLSRRPGHSLEAEREQFDKTQAISISKAINTQEAPVKEKHARRIILGTHHEKGAFTFWSYAIGLPLPSSSILSWKFCHVLHKVLRDGHPNVLHDCQRYRSNIREIGDLWGHLHDRYGQLVNVYTKLLLTKISFHLKHPQFPAGLEVTDEVLEKAAGTDVNNIFQLTVEMFDYMDCELKLSESVFRQLNTAIAVSQMSSGQCRLAPLIQVIQDCSHLYHYTVKLLFKLHSCLPADTLQGHRDRFHEQFHSLRNFFRRASDMLYFKRLIQIPRLPEGPPNFLRASALAEHIKPVVVIPEEAPEDEEPENLIEISTGPPAGEPVVVADLFDQTFGPPNGSVKDDRDLQIESLKREVEMLRSELEKIKLEAQRYIAQLKSQVNALEGELEEQRKQKQKALVDNEQLRHELAQLRAAQLEGERSQGLREEAERKASATEARYNKLKEKHSELVHVHAELLRKNADTAKQLTVTQQSQEEVARVKEQLAFQVEQVKRESELKLEEKSDQLEKLKRELEAKAGELARAQEALSHTEQSKSELSSRLDTLSAEKDALSGAVRQREADLLAAQSLVRETEAALSREQQRSSQEQGELQGRLAERESQEQGLRQRLLDEQFAVLRGAAAEAAGILQDAVSKLDDPLHLRCTSSPDYLVSRAQEALDAVSTLEEGHAQYLTSLADASALVAALTRFSHLAADTIINGGATSHLAPTDPADRLIDTCRECGARALELMGQLQDQQALRHMQASLVRTPLQGILQLGQELKPKSLDVRQEELGAVVDKEMAATSAAIEDAVRRIEDMMNQARHASSGVKLEVNERILNSCTDLMKAIRLLVTTSTSLQKEIVESGRGAATQQEFYAKNSRWTEGLISASKAVGWGATQLVEAADKVVLHTGKYEELIVCSHEIAASTAQLVAASKVKANKHSPHLSRLQECSRTVNERAANVVASTKSGQEQIEDRDTMDFSGLSLIKLKKQEMETQVRVLELEKTLEAERMRLGELRKQHYVLAGASGSPGEEVAIRPSTAPRSVTTKKPPLAQKPSVAPRQDHQLDKKDGIYPAQLVNY”, the “soluble on expression in E. coli” value is on record as “soluble”.

On to “MNSQELLAIAVDAIDNKKGEDTISLEMKGISDMTDYFVVTHGNNERQVQAIARAVKEVANEQNIEVKRMEGYNEARWILIDLADVVVHVFHKDERNYYNIEKLYQDAPLESYSQVAYLEHHHHHH”, for which the “soluble on expression in E. coli” value is given as “not soluble”.

Take “MNSSPKMKHDVFISFRSKDTRDNFVSHLCGCLRRKRIKTFLYDELPADERYEESLKAIEVSKISVIVFSENFGDSRWCLDEVVAILKCKEKFGQIVIPVLYHVDPLDIENQTGSFGDAFAKRRDKAEQLQEWKDSFTEAINLPGWSTAYLRYNPKLILSIKVTVVSELQDVLISGINIMITAFSTCK”: the “soluble on expression in E. coli” value is recorded as “soluble”.

Regarding “MNTDTFMCSSDEKQTRSPLSLYSEYQRMEIEFRAPHIMPTSHWHGQVEVNVPFDGDVEYLINNEKVNINQGHITLFWACTPHQLTDTGTCQSMAIFNLPMHLFLSWPLDKDLINHVTHGMVIKSLATQQLSPFEVRRWQQELNSPNEQIRQLAIDEIGLMLKRFSLSGWEPILVNKTSRTHKNSVSRHAQFYVSQMLGFIAENYDQALTINDVAEHVKLNANYAMGIFQRVMQLTMKQYITAMRINHVRALLSDTDKSILDIALTAGFRSSSRFYSTFGKYVGMSPQQYRKLSQQRRQTFPG”, the “soluble on expression in E. coli” value was “soluble”.

As to “MNTGAQIYRNSSSSIDKNIVDRIYKDGFLIAQYGLYMKRERDYKTFKVPVDAGFSCPNKDGTIDTRGCIFCPKMGRPISVEYCNIKYSLKDQIETQVKQNKEKGIGKFYVYFYPGTNTHGTPERLKELWDYALSFEDVIGISIGTRPDCLEDEKLDILENYVKQGYEIWIDLGIQTMHDKTLDFLNRKHSSNDIRRVLIECKKRGILVCGHIILGLPDESWNMMMETSKMLSDLEIDALKIYPLVVIENTELEEIYWKGEYKSLDEKQYIHLVSDFLEHLSPYVIIQRVSKDKVPDEIKISPEWSLRRLRILNEVSKELARRNSKQGSKYKK”, the “soluble on expression in E. coli” value is “not soluble”.

In the case of “MNTKKEIKFIEEIKGLVPKKLGKIYTSSIIEKDSKRLTINLKKVDALPKCGLIGAPDVCVKITLTQGAKTQTKSSRVIKNTCSAVYNEAVMFLCGTSKNDLAQTSIVISVHDAQRTCTGDDTIGCAYLGIGAVDKSEIDQWKGTTEHLGKEYKGNHTLKAPITAPPVHVAEANDDVAADDDD”, the “soluble on expression in E. coli” value is recorded as “soluble”.

As for “MNTMLNPHYQQIWQTVQLIPQGKVACYGQIADLAGLPGRARLVGKSLGKVPKDGWRGQRVPWFRVINSQGKISFPPGSENFDKQKHHLQDEQVVVIGSRIKLKEFQWKPDLSELLFSLEFLEHHHHHH”, the “soluble on expression in E. coli” value is on record as “not soluble”.

Consider “MNTRIKPVRSFLFVPGNKESMLDKAAQAGADALILDLEDSVPSPEKTAARELVAKKIPELIAQNQRIWVRINRTAHIYDLDDILAVAPAGIEGIYISKPGGPEDVYMASCMIAEAEARANLPLGSIGLIPLLETARSMQLCYDIAQMPRVAGIVGATARNADMGRALKFVWTAEGRETEYLKSRVVMAARAAGKQAIGGLWQQIKDLDGLAKSSAFDRQLGMSGELVLHPMQVETINRTYTPTAEDVAYYQGMIEALDAAQAQGRASVMYEGEHIDIAHVKTAHEVIALAQSFGNLEHHHHHH”, for which the “soluble on expression in E. coli” value is reported as “soluble”.

Consider “MNVDVLLKNVWLYQTVTQTFVQRNVAIKNDKFYYIYEEENVNLQPQKTINAENQWMIPGLIDAHMHIESSMTTPTIFSKAVVRYGVTTVIADAHEMANVFGLEGLKAFMAAETELDIFHAIPSSVPSTTPELETTGGIIGLAEVAELLKEPKVICLGEAMNFKGISYEPDSLIRQIIDLCQKQRPTMPLEGHCPKIEDQELADFLYSGITSDHTHQFPKTLKEKIEAGVFIQFQNKSITPENIQVIVDNDFYNYASIITDDVMADDLLKGHLNENVKKAVHAGLPIEKAIYMATYTPAKRMGLHDRGEIAPGKKADFLLLNDLESFDINTVYKSGKVVFEKGEPFHYPEKIEEFPATYQQTIQCKKLTEEDLLLKVATTKETVRCNVIQKQEIGTFTERITKEIPVENGLLQWQKANCALLIVMERYGKNGNISFSLMDQPLSEKGAIATTWAHDHHNLMVMGNTIEDILLAQNELLAMQGGYLVASDQQVMATCPLPIGGILSQAPIEQLGASLQKVRQAMQALGYQNMNEIMSFSTLSLPVSPAIKVTDFGMMDTKSQRFYPLVFPEDGVLLHENTH”, for which the “soluble on expression in E. coli” value was “not soluble”.

On to “MNVMQENQIKLIEHIKQAVVQAVGLEETEVPEILLEVPKDKKHGDYSTNIAMQLARVAKKAPRQIAESIVPELKKDTKLIKEVEIAGPGFINFYLDNAYLTDLVPVILTEDKKYG”, for which the “soluble on expression in E. coli” value was “not soluble”.

Regarding “MNVNGENNEKIDEHHLESSLAGVPTLPVSPLDHAKDLSQTNPNAQIGDLVTQTANLIAIKKQLLEDIAFNQHIQSMQVRAIQSFPQNNQVAPPFQQFDPRRRGLARMQKPESYKTVICQAWLESKTCSFADNCRFAHGEEELRPTFVEPLQNNKYKTKLCDKYTTTGLCPYGKRCLFIHPDHGPNAYIRADKLLEVSQRHALADIRDQMEQHIMTNGRIAAPPLSAIQHPLEMFARPSTPDEPAAKLPLGPTPVSTRGPRYELPTKELHDAEGAMTYPPSRWPLDPSMFALDAWNMAHRPASPLDSMVLGSAPNAGSFGMLGKQNTPGGVSGYSSAGSTPSQDLSSSSLNAASAAAAAAYFANSAVAQSLLMKSVATDPMMSCNGPFSPMPGFDQLAENMTKHLNLW”, the “soluble on expression in E. coli” value was “not soluble”.
